Measurements published in patent US12723255B2, “Herbicide tolerance genes and methods of use thereof” (priority 2014, dated 2026).
Like-named read-outs stand apart in the source and are kept apart here.

How the values were obtained:
[1] = enzyme activity assay at 23° C. with purified enzyme; assay type: biochemical; settings: wild-type set at 100%
Procedure: The enzyme activity of MON-HT protein variants with haloxyfop, fenoxaprop, fluazifop, and dichlorprop as substrates was determined using the enzyme activity assay conducted at 23° C. with purified enzyme. The activity was recorded as the maximum activity as a percentage of the wild-type enzyme's activity, which was set at 100%.

[2] = kinetic analysis, non-endpoint assay at 23° C.; assay type: biochemical
Method in brief: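 Purified C-terminal 6-His-tagged recombinant enzymes expressed in bacteria; quizalofop-P or 2,4-D as substrate. Vmax reported as specific activity (umol herbicide product mg enzyme-1 min-1) and Km as mM herbicide substrate, with standard error.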

[3] = assay type: physicochemical; settings: for T1/2, temperature where 50% of the protein was unfolded, Buffer: pH 7.5
Method in brief: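 Thermal shift assay: purified enzyme in 30 mM Tris pH7.5, 150 mM NaCl, with or without 50 uM Fe2+ and 1.0 mM aKG. Unfolding followed by SYPRO orange fluorescence from 10° C. to 95° C. in 0.5° C. steps; melting temperature (T1/2) taken from the curve.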

F1 hybrid maize plants = experiment: efficacy field trial with segregating F1 hybrid plants; assay type: in vivo; settings: for % Injury from V4 2,4-D / % Injury from V8 2,4-D: 2,4-D amine 2× at VE-V2 (plus quizalofop-P 0.5×), V4, V8; for % Injury from V4 Quizalofop / % Injury from V8 Quizalofop: quizalofop-P 2× at VE-V2, V4, V8
Procedure: Ten unique engineered proteins optimized for activity at higher temperatures were selected for maize transformation and analysis in plants. DNA constructs were produced for expressing these engineered proteins with codon usage optimized for monocot expression using methods known to those skilled in the art. Enhancers, promoters, leaders, introns, CTPs, and 3′UTRs were tested in various combinations with the engineered proteins in these DNA constructs. The DNA constructs were used to transform immature maize (LH244) embryos with these vectors using Agrobacterium tumifaciens and standard methods known in the art. Regenerated R0 transgenic plantlets were grown in the green house.
Transgenic R0 maize plants were screened by the application of quizalofop-P (2×) plus 2,4-D (2×) at 7 to 10 days following transplant into plugs (generally corresponding to V3-V4 growth stage). All constructs tested produced plants containing unique events that passed the RO screen. The R0 plants were selfed to generate R1 homozygous seed and the R0 was also used as the male to cross with inbred plants containing maize event MON89034 to generate segregating F1 hybrid seed for efficacy field trials.
An efficacy field trial was conducted with segregating F1 hybrid plants, with 50% hemizygous and 50% null for the transgene. Tolerance to quizalofop-P (2×) plus 2,4-D (2×) was assessed using two herbicide application regimens: (1) quizalofop-P (Assure II) at 0.16 lb ai/acre (2×) plus 0.25% v/v non-ionic surfactant (NIS) applied at VE-V2 growth stage followed by the same at V4 growth stage followed by the same at V8 growth stage and (2) 2,4-D amine at 2 lb ae/acre (2×) plus quizalofop-P at 0.04 lb ai/acre (0.5×) plus 0.25% v/v NIS applied at VE-V2 growth stage followed by 2,4-D amine at 2 lb ae/acre (2×) plus 0.25% v/v NIS applied at V4 growth stage followed by the same at V8 growth stage. The 50% of the plants that were null for transgene were removed by the first quizalofop-P application at VE-V2 growth stage. Plots were visually rated 10-14 days after application for crop injury on a scale of 0 to 100 with “0” being none and “100” being complete crop destruction. […] The percentage injury rating with 2× application of 2,4-D at V8 growth stage ranged from a high of 40% to a low of 0. Similarly, the percentage injury rating with 2× application of quizalofop-P at V8 growth stage ranged from a high of 90% to a low of 0. Variation in injury rating between plants expressing the same protein is likely due to variations in construct design or transgene insertion location.

[4] = 23° C., purified His-tagged protein, standard error in parenthetical
[5] = 23° C., purified His-tagged protein, standard error in parenthetical, read-out: Km Quizalofop
[6] = standard error in parenthetical, NDB = activity not robust enough for kinetic characterization
[7] = standard error in parenthetical, NDB = activity not robust enough for kinetic characterization, read-out: Km 2,4-D

Molecule	Vmax Quizalofop [2, 4]	Km [2, 5]	Vmax 2,4-D [2, 6]	Km [2, 7]	T1/2, temperature where 50% of the protein was unfolded, Buffer plus Fe2+ and aKG [3]	T1/2, temperature where 50% of the protein was unfolded, Buffer [3]	% Injury from V4 2,4-D (F1 hybrid maize plants; CTP A)	% Injury from V8 2,4-D (F1 hybrid maize plants; CTP A)	% Injury from V4 Quizalofop (F1 hybrid maize plants; CTP A)	% Injury from V8 Quizalofop (F1 hybrid maize plants; CTP A)	% Injury from V4 2,4-D (F1 hybrid maize plants; CTP B)	% Injury from V8 2,4-D (F1 hybrid maize plants; CTP B)	% Injury from V4 Quizalofop (F1 hybrid maize plants; CTP B)	% Injury from V8 Quizalofop (F1 hybrid maize plants; CTP B)	% Injury from V4 2,4-D (F1 hybrid maize plants; CTP C)	% Injury from V8 2,4-D (F1 hybrid maize plants; CTP C)	% Injury from V4 Quizalofop (F1 hybrid maize plants; CTP C)	% Injury from V8 Quizalofop (F1 hybrid maize plants; CTP C)	% Injury from V4 2,4-D (F1 hybrid maize plants; CTP None)	% Injury from V8 2,4-D (F1 hybrid maize plants; CTP None)	also measured
MON-HT1: engineered oxygenase protein, amino acid sequence SEQ ID NO:14 (protein) MHAALTPLTNKYRFIDVQPLTGVLGAEITGVDLREPLDDSTWNEILDAFHTYQVIYFPGQAITNEQHIAFSRRFGPVDPVPILKSIEGYPEVQMIRREANESSRFIGDDWHTDSTFLDAPPAAVVMRAIEVPEYGGDTGFLSMYSAWETLSPTMQATIEGLNVVHSATKVFGSLYQATNWRFSNTSVKVMDVDAGDRETVHPLVVTHPVTGRRALYCNQVYCQKIQGMTDAESKSLLQFLYEHATKFDFTCRVRWKKDQVLVWDNLCTMHRAVPDYAGKFRYLTRTTVAGDKPSR	0.76 (−0.04) umol herbicide product mg enzyme-1 min-1	170 µM	0.95 (−0.03) umol herbicide product mg enzyme-1 min-1	30 µM	59 °C	56 °C	7.5%	5.83%	8.33%	8.33%	10%	10%	7.5%	8.75%	14.09%	11.36%	0.45%	0.91%	12.86%	10.71%	maximum activity as a percentage of the wild-type enzyme's activity, Fluazifop [1]: 67%; Vmax for 2,4-D higher than that of the wild-type enzyme [2]: 9.5 fold; Vmax for quizalofop-P relative to the wild-type enzyme ([2]; 23° C.): about half; Vmax 2,4-D ([2]; Table 10 series, unit as defined): 1.17 (0.01) umol herbicide product mg enzyme-1 min-1; Km ([2]; Table 10 series, unit as defined, read-out: Km 2,4-D): 30 µM; Vmax Quizalofop ([2]; Table 10 series, 23° C., unit as defined): 1.62 (0.05) umol herbicide product mg enzyme-1 min-1; Km ([2]; Table 10 series, 23° C., unit as defined, read-out: Km Quizalofop): 120 µM; Melting temp, Buffer ([3]; Table 11 series): 58 °C; Melting temp, Buffer plus Fe2+ and aKG ([3]; Table 11 series): 62 °C; % Injury from V4 Quizalofop (F1 hybrid maize plants; CTP None): 7.14%; % Injury from V8 Quizalofop (F1 hybrid maize plants; CTP None): 7.86%
MON-HT8: engineered oxygenase protein, amino acid sequence SEQ ID NO:37 (protein) MHAALTPLTNKYRFIDVQPLTGVLGAEITGVDLREPLDDSTWNEILDAFHTYQVIYFPGQAITNEQHIAFSRRFGPVDPVPILKSIEGYPEVQMIRREANESGRVIGDDWHTDSTFLDAPPAAVVMRAIEVPEYGGDTGFLSMYSAWETLSPTMQATIEGLNVVHSATKVFGSLYQATNWRFSNTSVKVMDVDAGDRETVHPLVVTHPVTGRRALYCNQVYCQKIQGMTDAESKSLLQFLYEHATKFDFTCRVRWKKDQVLVWDNLCTMHRSVPDYGNAFRYLTRTTVAGDKPSR	0.46 (−0.02) umol herbicide product mg enzyme-1 min-1	110 µM	0.11 (−0.01) umol herbicide product mg enzyme-1 min-1	140 µM	61 °C	61 °C	10%	10%	1.25%	1.25%	12.5%	11.67%	9.17%	8.33%	20%	21.25%	30%	32.5%	0%	0%	maximum activity as a percentage of the wild-type enzyme's activity, Haloxyfop ([1]; purified enzyme): 99%; maximum activity as a percentage of the wild-type enzyme's activity, Fluazifop [1]: 50%; % Injury from V4 Quizalofop (F1 hybrid maize plants; CTP None): 85%; % Injury from V8 Quizalofop (F1 hybrid maize plants; CTP None): 90%
MON-HT2: engineered oxygenase protein, amino acid sequence SEQ ID NO:18 (protein) MHAALTPLTNKYRFIDVQPLTGVLGAEITGVDLREPLDDSTWNEILDAFHTYQVIYFPGQAITNEQHIAFSRRFGPVDPVPLLKSIEGYPEVQMIRREANESSRVIGDDWHSDSTFLDAPPAAVVMRAIEVPEYGGDTGFLSMYSAWETLSPTMQATIEGLNVVHSATKVFGSLYQATNWRFSNTSVKVMDVDAGDRETVHPLVVTHPVTGRRALYCNQVYCQKIQGMTDAESKSLLQFLYEHATKFDFTCRVRWKKDQVLVWDNLCTMHRAAPDYAGKFRYLTRTTVAGDKPSR	1.41 (−0.11) umol herbicide product mg enzyme-1 min-1	410 µM	0.23 (−0.01) umol herbicide product mg enzyme-1 min-1	40 µM	58 °C	55 °C	20%	34.17%	0%	0%	10.56%	13.33%	11.67%	11.67%	12%	12%	14.33%	14.33%	20%	33.75%	maximum activity as a percentage of the wild-type enzyme's activity, Dichlorprop [1]: 92%; % Injury from V4 Quizalofop (F1 hybrid maize plants; CTP None): 0%; % Injury from V8 Quizalofop (F1 hybrid maize plants; CTP None): 0%
